Residue numbers refer to the chain shown, from its start. One block for each binder: values may come before it. Ends that are not written are not given here.
T1: GFP‐PRC1 (human, UniProt O43663 1-620)
T1 construct: protein regulator of cytokinesis 1 (PRC1), human; Purified recombinant GFP-PRC1 of the TIRF assay; probably full length
T1 sequence (looked up): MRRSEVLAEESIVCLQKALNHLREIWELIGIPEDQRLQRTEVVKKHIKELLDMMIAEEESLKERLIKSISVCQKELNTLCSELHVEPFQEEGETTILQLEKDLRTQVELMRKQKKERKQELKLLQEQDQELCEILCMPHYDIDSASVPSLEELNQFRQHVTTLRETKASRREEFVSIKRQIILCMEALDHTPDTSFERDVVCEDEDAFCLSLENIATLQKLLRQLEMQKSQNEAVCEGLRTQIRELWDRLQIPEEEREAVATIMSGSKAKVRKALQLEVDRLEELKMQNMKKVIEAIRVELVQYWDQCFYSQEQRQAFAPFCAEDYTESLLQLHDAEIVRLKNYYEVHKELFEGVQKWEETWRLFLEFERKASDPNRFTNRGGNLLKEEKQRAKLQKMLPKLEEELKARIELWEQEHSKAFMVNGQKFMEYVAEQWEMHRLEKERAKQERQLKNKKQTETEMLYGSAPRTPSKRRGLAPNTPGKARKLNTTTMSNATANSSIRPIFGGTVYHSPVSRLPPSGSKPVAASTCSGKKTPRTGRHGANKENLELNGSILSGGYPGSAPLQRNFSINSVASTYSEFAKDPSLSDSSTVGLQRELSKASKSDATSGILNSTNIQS

T2: PRC1_(1–168) (human, UniProt O43663 1-168)
T2 chain: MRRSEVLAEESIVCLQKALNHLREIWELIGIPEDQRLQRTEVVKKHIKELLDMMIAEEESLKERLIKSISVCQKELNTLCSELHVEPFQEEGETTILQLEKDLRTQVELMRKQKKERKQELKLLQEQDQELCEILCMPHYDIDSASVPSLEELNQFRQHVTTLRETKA

B1: PRC1_(1–168) (domain or fragment, human, UniProt O43663 1-168, looked up)
chain: T2 chain
notes: Dimer by SEC-MALS (52 ± 2.5 kDa measured); source: E. coli BL21-CodonPlus (DE3)-RIL, purified (HisTrap, SEC)
B2: PRC1_(1–168) MEE (domain or fragment, human, UniProt O43663 1-168, looked up)
chain: T2 chain with M54A, E57A, E58A
notes: Vector pET Duet 1; dimer by SEC-MALS; source: E. coli BL21-CodonPlus (DE3)-RIL, purified
B3: GST‐CENP‐E_(2605–2701) 2SD (domain or fragment, human, UniProt Q02224-1 2605-2701, looked up)
chain: SPKSPKVTGTASKKKQITPSQCKERNLQDPVPKEDPKSCFFDSRSKSLPDPHPVRYFDNSSLGLCPEVQNAGAESVDSQPGPWHASSGKDVPECKTQ
notes: also called pAG96; source: E. coli BL21-CodonPlus (DE3)-RIL, purified; not shown: GST, N-terminal, kept
B4: GST‐Kif4A_(1133–1232) (domain or fragment, human, UniProt O95239 1133-1232, looked up)
chain: TQDSEGSFKLEDPTEVTPGLSFFNPVCATPNSKILKEMCDVEQVLSKKTPPAPSPFDLPELKHVATEYQENKAPGKKKKRALASNTSFFSGCSPIEEEAH
notes: also called pAG127; source: E. coli BL21-CodonPlus (DE3)-RIL, purified
B5: 647GST‐CENP‐E_(2639–2671) (domain or fragment, human, UniProt Q02224-1 2639-2671, looked up)
chain: SPKSCFFDSRSKSLPSPHPVRYFDNSSLGLCPE
modifications: cysteine pairing not given here; also: Alexa Fluor 647 label, site not given here (degree of labelling ~1:3), GST fusion
notes: also called pAG118

What was measured:
[1] = target: GST‐CENP‐E_(2605–2701) 6SD (human, UniProt Q02224-1 2605-2701, S2639D | S2647D | S2649D (printed S2469D in Table 1; S2649 in the text) | …); assay: ITC
[2] = target: the molecule itself; assay: SEC-MALS; 100 μl of 3.6 mg/ml PRC1(1-168) (152 μM) or 2.0 mg/ml PRC1(1-168) MEE (84 μM), Superdex-200 Increase 10/300 GL, 20 mM HEPES pH 7.4, 300 mM NaCl, 1 mM EDTA, 22°C
PRC1_(1–168) [3] = target: B1; assay: ITC; PRC1(1-168) titrated into the CENP-E construct or peptide in the cell, 25°C, 20 mM HEPES pH 7.5, 150 mM NaCl, 0.005% Tween-20, 0.5 mM TCEP; one set of sites; concentrations calculated for monomers; conditions: both partners purified
PRC1_(1–168) [4] = target: B1; assay: SEC; proteins mixed at equimolar (1:1) ratio, Superdex 200 Increase 10/300 GL, 20 mM HEPES pH 7.5, 300 mM NaCl, 1 mM EDTA, 1 mM DTT; fractions on Coomassie-stained SDS-PAGE; conditions: both partners purified
GFP‐PRC1 = target: T1, GFP‐PRC1; assay: TIRF microscopy, recruitment to microtubules in vitro; GMPCPP-stabilized rhodamine microtubules mixed with 647GST-CENP-E(2639-2671) alone, GFP-PRC1 alone or both, held on coverslips by anti-tubulin antibodies; 80 mM PIPES pH 6.9, 5 mM MgCl2, 1 mM DTT, oxygen scavenger; conditions: both partners purified
PRC1_(1–168) [5] = target: T2, PRC1_(1–168); assay: ITC

Binder: B1
Kd [1]: > 100 µM
stoichiometry N [2]: 2

Binder: B2
stoichiometry N [2]: 2

Binder: B3
Kd (PRC1_(1–168) [3]): 2.4 µM

Binder: B4
binding result (PRC1_(1–168) [4]): binds

Binder: B5
binding result (GFP‐PRC1): binds

Kd (PRC1_(1–168) [5]): 64 µM
Binder: PVRYFDNSSLG [CENP‐E peptide 2]

Kd (PRC1_(1–168) [5]): 41.1 µM
Binder: PKSCFFDSRSK [CENP‐E peptide 1]

Source: article PMC10620760, “Phosphorylation controls spatial and temporal activities of motor‐PRC1 complexes to complete mitosis” (The EMBO Journal, 2023)
